Biological target: soluble Aβ1-42 (125I-labelled) (human) (UniProt P05067)
Assay: capture radioimmunoassay, 50,000 CPM 125I-Aβ1-42, antibody at 10 µg/ml

murine monoclonal antibody 10D5 (isotype IgG1)
percent of radioactive counts bound at 10 µg/ml: 2%

From patent JP2012050437A
